This note sets out measurements from the Immune Epitope Database (IEDB).

pKd: −log10 of the molar value.

The target of one assay is HLA-B*18:01. Kind of assay: IEDB peptide-MHC binding, purified MHC/competitive/fluorescence; filed as Kd, often an IC50 or EC50 that approximates it; ≥ and ≤ were set here for values at or beyond the usual limits of such assays.
A further assay addresses HLA-A*29:02. Described as above.
Another assay concerns the target HLA-A*02:19. The description is as above.
In the next assay the target is HLA-A*02:03. The description is as above.
The target of another assay is HLA-B*57:01. The assay is described as above.
In a further assay the target is HLA-A*69:01. Described as above.
Another assay addresses HLA-A*02:12. The assay is described as above.
The target in the next assay is HLA-A*03:01. The assay is described as above.
The target in another assay is HLA-A*02:01. Described as above.
The target in the next assay is HLA-A*02:16. The assay is described as above.
A further assay concerns the target HLA-A*02:11. The assay is described as above.
A further assay has as its target HLA-B*15:17. Described as above.
The next assay concerns the target HLA-B*39:01. The description is as above.
The target in the next assay is HLA-B*27:03. Described as above.
For assay [1], the target named is HLA-B*15:01. The description is as above.
For the next assay, the target named is HLA-A*26:01. The assay is described as above.
The target in assay [2] is HLA-B*51:01. The assay is described as above.
A further assay has as its target HLA-A*24:03. Described as above.
The next assay concerns the target HLA-B*46:01. Described as above.
In a further assay the target is HLA-B*15:03. Nature of the assay: IEDB peptide-MHC binding, purified MHC/competitive/radioactivity; filed as Kd, often an IC50 or EC50 that approximates it; ≥ and ≤ were set here for values at or beyond the usual limits of such assays.
Assay [3] has as its target HLA-B*15:01. Described as above.
Another assay has as its target HLA-A*68:02. Kind of assay: IEDB peptide-MHC binding, purified MHC/competitive/fluorescence; filed as Kd, often an IC50 or EC50 that approximates it; ≥ and ≤ were set here for values at or beyond the usual limits of such assays.
The target in the next assay is HLA-B*53:01. Nature of the assay: IEDB peptide-MHC binding, purified MHC/competitive/radioactivity; filed as Kd, often an IC50 or EC50 that approximates it; ≥ and ≤ were set here for values at or beyond the usual limits of such assays.
The target in the next assay is HLA-B*35:01. The assay is described as above.
For the next assay, the target named is HLA-B*58:01. Described as above.
For assay [4], the target named is HLA-B*51:01. Nature of the assay: IEDB peptide-MHC binding, purified MHC/direct/fluorescence; filed as Kd, often an IC50 or EC50 that approximates it; ≥ and ≤ were set here for values at or beyond the usual limits of such assays.
Assay [5] concerns the target HLA-B*15:01. Described as above.
The target of a further assay is HLA-B*07:02. The description is as above.
Another assay concerns the target HLA-B*08:01. Nature of the assay: IEDB peptide-MHC binding, purified MHC/competitive/radioactivity; filed as Kd, often an IC50 or EC50 that approximates it; ≥ and ≤ were set here for values at or beyond the usual limits of such assays. As to conditions: source organism: Dengue virus 2 Jamaica/1409/1983.
The next assay has as its target HLA-A*32:01. Described as above.
The mark [6] stands for this setting: source organism: Cryptosporidium parvum Iowa II.
Where [7] appears, read: source organism: Vaccinia virus WR.
[8] abbreviates: source organism: Escherichia coli F11.
[9] abbreviates: source organism: Dengue virus 3 Martinique/1243/1999.
The mark [10] stands for this setting: source organism: West Nile virus.
[11] abbreviates: source organism: Burkholderia mallei.
[12] abbreviates: source organism: Vibrio cholerae 2740-80.
The mark [13] stands for this setting: source organism: Vibrio cholerae.
[14] abbreviates: source organism: Vaccinia virus Copenhagen.
Setting [15] is: source organism: Dengue virus 2 Jamaica/1409/1983.
Where [16] appears, read: source organism: Dengue virus 1 Singapore/S275/1990.
The mark [17] stands for this setting: source organism: Dengue virus 4 Philippines/H241/1956.
[18] abbreviates: source organism: Brucella suis 1330.
The mark [19] stands for this setting: source organism: Vibrio vulnificus YJ016.

Regarding DLAQDPMLI, the pKd with HLA-B*18:01 (setting [6]), with HLA-A*29:02 (setting [6]), with HLA-A*02:19 (setting [6]), in the assay with HLA-A*02:03 (setting [6]), with HLA-B*57:01 (setting [6]) and with HLA-A*69:01 (setting [6]) was at most 4.70 in each case. Also, the pKd (usually the Kd on a negative log10 scale, so that one unit is a factor of ten) was at most 4.70 with HLA-A*02:12 (setting [6]); at most 4.70 in the assay with HLA-A*03:01 (setting [6]); at most 4.70 with HLA-A*02:01 (setting [6]); 6.40 in the assay with HLA-A*02:16 (setting [6]); at most 4.70 with HLA-A*02:11 (setting [6]); at most 4.70 with HLA-B*15:17 (setting [6]). Further, the pKd with HLA-B*39:01 (setting [6]), with HLA-B*27:03 (setting [6]), with HLA-B*15:01 [1] (setting [6]), in the assay with HLA-A*26:01 (setting [6]), with HLA-B*51:01 [2] (setting [6]) and with HLA-A*24:03 (setting [6]) was at most 4.70 in each case. This sequence showed a pKd with HLA-B*46:01 (setting [6]) of at most 4.70.
Turning to FLSEPYSYF, the pKd in the assay with HLA-B*15:03 (setting [7]) is 7.53.
For the sequence FMAYTTSHI, the figures for the pKd in the assay with HLA-B*15:03 (setting [7]) and in the assay with HLA-B*15:01 [3] (setting [7]) were 8.12 and 6.88, respectively.
Take GSGDDTWLI: the pKd with HLA-B*18:01 (setting [8]), with HLA-A*29:02 (setting [8]), with HLA-A*68:02 (setting [8]), with HLA-A*02:19 (setting [8]), in the assay with HLA-A*02:03 (setting [8]) and in the assay with HLA-B*57:01 (setting [8]) was at most 4.70 throughout. Besides, the pKd in the assay with HLA-A*69:01 (setting [8]) was at most 4.70; in the assay with HLA-A*02:12 (setting [8]), 5.90; in the assay with HLA-A*03:01 (setting [8]) it was at most 4.70; in the assay with HLA-A*02:01 (setting [8]), at most 4.70; in the assay with HLA-A*02:16 (setting [8]) it was at most 4.70; with HLA-A*02:11 (setting [8]) it was at most 4.70. Moreover, the pKd in the assay with HLA-B*15:17 (setting [8]), with HLA-B*39:01 (setting [8]), in the assay with HLA-B*27:03 (setting [8]), with HLA-B*15:01 [1] (setting [8]), in the assay with HLA-A*26:01 (setting [8]) and in the assay with HLA-B*51:01 [2] (setting [8]) was at most 4.70 in each case. Besides, the pKd in the assay with HLA-A*24:03 (setting [8]) and in the assay with HLA-B*46:01 (setting [8]) was at most 4.70 each time.
As to IASAIVLEF, the pKd in the assay with HLA-B*53:01 (setting [9]) was 8.12; with HLA-B*35:01 (setting [9]), 8.05; with HLA-B*58:01 (setting [9]), 8.54.
The sequence IPTAAGKNL had a pKd in the assay with HLA-B*51:01 [4] (setting [10]) of at most 4.70.
As to KLAQVRRAM, the pKd is 7.57 with HLA-B*15:01 [5] (source organism: Burkholderia mallei ATCC 23344), at most 4.70 in the assay with HLA-B*51:01 [4] (setting [11]) and 8.22 in the assay with HLA-B*07:02 (setting [11]).
As to LATFTVNIF, the pKd with HLA-B*15:03 (setting [7]) is 7.45.
Regarding LAVFPAMFW, the pKd with HLA-B*18:01 (setting [12]) was at most 4.70; with HLA-A*68:02 (setting [12]), at most 4.70; with HLA-A*02:19 (setting [12]), at most 4.70; with HLA-A*02:03 (setting [12]) it was at most 4.70; in the assay with HLA-B*57:01 (setting [12]) it was 7.42; with HLA-A*69:01 (setting [12]), at most 4.70. The pKd with HLA-A*02:12 (setting [12]), in the assay with HLA-A*03:01 (setting [12]), with HLA-A*02:01 (setting [12]), with HLA-A*02:16 (setting [12]), with HLA-A*02:11 (setting [12]) and with HLA-B*39:01 (setting [12]) was at most 4.70 in each case. Further, the pKd with HLA-B*27:03 (setting [12]), with HLA-B*15:01 [1] (setting [12]), with HLA-A*26:01 (setting [12]) and with HLA-B*46:01 (setting [12]) was at most 4.70 throughout.
Regarding LLRQHWLSL, the pKd in the assay with HLA-B*15:01 [5] (source organism: Vibrio cholerae O395) is 7.31; with HLA-B*51:01 [4] (setting [13]), at most 4.70; with HLA-B*07:02 (setting [13]) it was 7.89.
As to LLSLEIVFF, the values for the pKd in the assay with HLA-B*15:03 (setting [14]) and in the assay with HLA-B*15:01 [3] (setting [14]) were 5.68 and 6.85, respectively.
Regarding MALKLITQF, the values for the pKd with HLA-B*53:01 (setting [9]), in the assay with HLA-B*35:01 (setting [9]) and with HLA-B*58:01 (setting [9]) were 7.65, 8.90 and 8.67, respectively.
In the case of NPITLTAAL, the pKd in the assay with HLA-B*08:01 was 7.16; with HLA-B*53:01 (setting [15]), 6.42; with HLA-B*35:01 (setting [15]), 7.60; in the assay with HLA-B*51:01 [4] (source organism: dengue virus type 2), at most 4.70.
On to QIMEVTARW, for which the pKd in the assay with HLA-A*32:01 (setting [16]) was 7.25; with HLA-B*58:01 (setting [16]) it was 7.73.
Turning to RTVFFVLMM, the pKd in the assay with HLA-A*32:01 (setting [17]) was at most 4.29; in the assay with HLA-B*58:01 (setting [17]) it was 6.20.
In the assay with HLA-B*51:01 [4] (setting [10]), RVIDSRKSV gave a pKd of 5.80.
Regarding SKFVYVSVM, the pKd with HLA-B*15:03 (setting [7]) was 8.79.
Turning to TEWPQLKVA, the pKd in the assay with HLA-B*18:01 (setting [18]) is 7.47; with HLA-A*29:02 (setting [18]) it was at most 4.70; with HLA-A*68:02 (setting [18]) it was at most 4.70; in the assay with HLA-A*02:19 (setting [18]), at most 4.70; with HLA-A*02:03 (setting [18]), at most 4.70; with HLA-B*57:01 (setting [18]), at most 4.70. Further, the pKd with HLA-A*69:01 (setting [18]), in the assay with HLA-A*02:12 (setting [18]), in the assay with HLA-A*03:01 (setting [18]), with HLA-A*02:01 (setting [18]), in the assay with HLA-A*02:16 (setting [18]) and with HLA-A*02:11 (setting [18]) was at most 4.70 throughout. Also, the pKd with HLA-B*15:17 (setting [18]), with HLA-B*39:01 (setting [18]), with HLA-B*27:03 (setting [18]), with HLA-B*15:01 [1] (setting [18]), with HLA-A*26:01 (setting [18]) and with HLA-B*51:01 [2] (setting [18]) was at most 4.70 in each case. In addition, the pKd with HLA-B*46:01 (setting [18]) was at most 4.70.
In the case of VTFGARASF, the pKd in the assay with HLA-A*02:19 (setting [19]) is at most 4.70; in the assay with HLA-A*02:03 (setting [19]) it was at most 4.70; with HLA-B*57:01 (setting [19]), 7.01; in the assay with HLA-A*69:01 (setting [19]), at most 4.70; with HLA-A*02:12 (setting [19]), at most 4.70; in the assay with HLA-A*03:01 (setting [19]), at most 4.70. Also, the pKd with HLA-A*02:01 (setting [19]), with HLA-A*02:16 (setting [19]), with HLA-A*02:11 (setting [19]), in the assay with HLA-B*39:01 (setting [19]), in the assay with HLA-B*27:03 (setting [19]) and in the assay with HLA-A*26:01 (setting [19]) was at most 4.70 each time.
For WSTSFTNIF, in the assay with HLA-B*15:03 (setting [14]), the pKd is 8.23.
